Laboratory results reported in patent publication US20090099091A1 (Stanford University, published 2009).

Columns and labels:
Mushroom tyrosinase [1] = molecular target: T1, Mushroom tyrosinase (mushroom, UniProt C7FF04 1-392); experiment: cell-based or functional assay
Mushroom tyrosinase [2] = molecular target: T1, Mushroom tyrosinase; experiment: cell-based or functional assay; remark: listed apart in the source

T1 sequence (C7FF04 1-392): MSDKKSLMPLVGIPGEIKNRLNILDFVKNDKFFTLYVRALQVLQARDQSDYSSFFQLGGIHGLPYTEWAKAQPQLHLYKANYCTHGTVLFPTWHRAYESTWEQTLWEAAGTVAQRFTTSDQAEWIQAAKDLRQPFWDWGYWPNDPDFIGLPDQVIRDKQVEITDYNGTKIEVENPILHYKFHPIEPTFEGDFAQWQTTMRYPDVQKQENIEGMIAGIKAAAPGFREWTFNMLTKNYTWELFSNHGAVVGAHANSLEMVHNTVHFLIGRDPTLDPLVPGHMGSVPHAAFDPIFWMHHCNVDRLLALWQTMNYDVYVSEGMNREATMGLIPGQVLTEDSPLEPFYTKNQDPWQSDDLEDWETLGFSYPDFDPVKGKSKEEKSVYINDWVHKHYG

Binder	IC50 (inhibition of mushroom tyrosinase) (Mushroom tyrosinase [1]) [µM]	IC50 (inhibition of mushroom tyrosinase, dopachrome absorbance at 475 nM) (Mushroom tyrosinase [2]) [µM]
YRSRKYSSWY [YRSRKYSSWY (YR peptide)]	40	40
KFEKKFEK [KFEKKFEK (KF peptide)]	–	3600
